The target of assay [1] is tyrosine phosphorylated wild-type EGF receptor, full length (human) (UniProt P00533). Nature of the assay: immunoprecipitated autophosphorylated EGFR, anti-PLC-γ blot with 125I-protein A, bands counted.
Assay [2] has as its system GRB2 phosphorylation in HER14 cells. Nature of the assay: GRB2 phosphorylation in (32P) orthophosphate-labelled, EGF stimulated HER14 cells. Type of assay: cell-based. The conditions noted are these: vanadate (200 μM) at 37° C. for 20 min prior to the addition of EGF. How it is done:
Labeling cells with (^32P)-orthophosphate were carried out as previously described (Li et al., Mol. Biol. Cell 2:641-649, 1991). Briefly, confluent HER14 cells starved for 16 hrs in 1% FCS/DMEM were incubated for two hours in Pi-free media, and labeled for two hours in Pi-free media, dialyzed FBS, 1 mCi/ml orthophosphate (carrier free, 314.5-337.5 TBq/mmole, purchased form NEN, Wilmington, Del.) at 37° C. Where appropriate, cells were incubated with vanadate (200 μM) at 37° C. for the last 20 minutes of cell labeling. Cells were then stimulated for two minutes with EGF (250 ng/ml) or PDGF (50 ng/ml), rapidly washed 2 times with ice cold phosphate-buffered saline (PBS), and solubilized immediately in lysis buffer (10 mM Tris-Cl pH 7.6, 50 mM NaCl, […] sodium pyrophosphate, 50 mM sodium fluoride, 100 μM sodium orthovanadate, 5 μM ZnCl2, 1 mM PMSF and 0.5% Triton-X-100). […]
To determine if the failure to detect tyrosine phosphorylated GRB2 was due to the rapid dephosphorylation by a protein tyrosine phosphatase, a potent tyrosine phosphatase inhibitor, vanadate, was tested for its effects upon GRB2 phosphorylation. (^32p) orthophosphate-labelled cells were incubated with or without vanadate at 37° C. for 20 min prior to the addition of EGF, and GRB2 phosphorylation was assessed as described above.

Assay [3] deals with trpE/GAP SH2 fusion protein (GAP residues 171-448) (UniProt P00895). Nature of the assay: filter binding: 32P-labelled probe on fusion protein spotted on nitrocellulose.
The target of a further assay is T1, EGFR-C (Homo sapiens, UniProt P00533).
T1 construct: EGFR-C represents a deletion mutant containing the cytoplasmic domain of the EGF receptor produced by baculovirus-infected SF9 cells; made in house; host or cells: baculovirus-infected SF9 insect cells
In words: Binding of trpE/GAP SH2 fusion protein to baculovirus expressed EGFR-C (immunoprecipitation / immunoblot). The note with it: phosphorylated vs non-phosphorylated EGFR-C, FIG. 12A. How it is done:
FIGS. 12A and 12B are representations of a gel pattern showing binding of EGFR-C to trpE proteins. In FIG. 12A, EGFR-C (0.5 μg) was immunoprecipitated with antibody C and washed. MnCl2 alone or MnCl2 and ATP were then added to facilitate autophosphorylation of TrpE or trpE/GAP SH2 (approximately 2 μg). The immunoprecipitates were separated on a 10% SDS-gel, transferred to nitrocellulose and immunoblotting was performed with anti-trpE. For comparison, about 0.1 μg of trpE or trpE/GAP SH2 lysate was loaded directly on to the gel (right panel of 12A). In FIG. 12B, trpE or trpE/GAP SH2 was immunoprecipitated with anti-trpE antibodies and washed. Phosphorylated or non-phosphorylated EGFR-C (0.5 μg) was then added and allowed to bind as above. After washing, samples were separated on a 10% gel, transferred to nitrocellulose and probed with antibody C. The two samples on the right represent 0.5 μg of phosphorylated and non-phosphorylated kinase loaded directly onto the gel (exposure time: 2 h). The preparation of trpE fusion proteins containing the GAP SH2 domain (GAP residues 171-448, 10 FIG. 9B) has been described by Moran, M. F. et al., Proc. Natl. Acad. Sci. USA 87: 8622-8626 (1990). Bacterial lysates containing trpE/GAP SH2 fusion proteins were prepared by resuspending 1 g of bacteria in 3 ml of 50 mM Tris pH 7.5, 0.5 mm EDTA, 0.1 mm PMSF. […]

For assay [4], the target named is T2, tyrosine phosphorylated EGFR-C (intracellular domain of the EGF receptor, baculovirus expressed) (human, UniProt P00533 669-1210, tyrosine autophosphorylated with MnCl2 and ATP; positions not given).
T2 construct: domain: intracellular domain; Produced in baculovirus-infected SF9 cells; also called EGFR cytoplasmic domain; phosphorylated kinase
In words: EGFR-C immunoprecipitated with antibody C, anti-trpE immunoblot. How it is done: In FIG. 12A, EGFR-C (0.5 μg) was immunoprecipitated with antibody C and washed. […] The immunoprecipitates were separated on a 10% SDS-gel, transferred to nitrocellulose and immunoblotting was performed with anti-trpE. […] Phosphorylated or non-phosphorylated EGFR-C (0.5 μg) was then added and allowed to bind as above. After washing, samples were separated on a 10% gel, transferred to nitrocellulose and probed with antibody C. The two samples on the right represent 0.5 μg of phosphorylated and non-phosphorylated kinase loaded directly onto the gel (exposure time: 2 h).

“PLC-γ (phosphatidylinositol specific phospholipase C-γ), non-phosphorylated, from 3TP1 cell lysate (enzyme)” displayed a percent remaining bound after three washes with HNTG in assay [1] of 50%.
Consider `[O]=[V]([O-])([O-])[O-]` [Vanadate, vanadate], for which the “effect on GRB2 phosphorylation” value in assay [2] is “did not result in detectable GRB2 phosphorylation”.
As to “tyrosine phosphorylated C-terminal CNBr fragment of the EGF receptor (EGFR 984/1186) (from UniProt P00533 1008-1210)”, the amount of spotted fusion protein at which binding was still detected in assay [3] is < 5 ng.

B1: trpE/GAP SH2 fusion protein: bacterially expressed trpE fusion protein containing the GAP SH2 domain (GAP residues 171-448) (protein)
chain: MQTQKPTLELLTCEGAYRDNPTALFHQLCGDRPATLLLESADIDSKDDLKSLLLVDSALRITALGDTVTIQALSGNGEALLALLDNALPAGVESEQSPNCRVLRFPPVSPLLDEDARLCSLSVFDAFRLLQNLLNVPKEEREAMFFGGLFSYDLVAGFEDLPQLSAENNCPDFCFYLAETLMVIDHQKKSTRIQASLFAPNEEEKQRLTARLNELRQQLTEAAPPLPVVSVPHMRCECNQSDEEFGGVVRLLQKAIRAGEIFQVVPSRRFSLPCPSPLAAYYVLKKSNPSPYMFFMQDNDFTLFGASPESSLKYDATSRQIEIIPLTAPPTNQWYHGKLDRTIAEERLRQAGKSGSYLIRESDRRPGSFVLSFLSQMNVVNHFRIIAMCGDYYIGGRRFSSLSDLIGYYSHVSCLLKGEKLLYPVAPPEPVEDRRRVRAILPYTKVPDTDEISFLKGDMFIVHNELEDGWMWVTNLRTDEQGLIVEDLVEEVGREEDPHEGKIWFHGKISKQEAYNLLMTVGQVCSFLVRPSDNTPGDYSLYFRTNENIQRFKICPTPNNQFMMGGRYYNSIGDIIDHYRKEQIVEGYYLKEPVPMQDQEQ
B1: the “binding to EGFR-C” value with EGFR-C is “bound only to the tyrosine phosphorylated EGFR-C”.

B2: trpE protein alone (other, UniProt P00895 1-323, looked up)
chain: MQTQKPTLELLTCEGAYRDNPTALFHQLCGDRPATLLLESADIDSKDDLKSLLLVDSALRITALGDTVTIQALSGNGEALLALLDNALPAGVESEQSPNCRVLRFPPVSPLLDEDARLCSLSVFDAFRLLQNLLNVPKEEREAMFFGGLFSYDLVAGFEDLPQLSAENNCPDFCFYLAETLMVIDHQKKSTRIQASLFAPNEEEKQRLTARLNELRQQLTEAAPPLPVVSVPHMRCECNQSDEEFGGVVRLLQKAIRAGEIFQVVPSRRFSLPCPSPLAAYYVLKKSNPSPYMFFMQDNDFTLFGASPESSLKYDATSRQIEI
notes: Control for the trpE/GAP SH2 fusion; also called bacterial protein alone
As for B2, in assay [4], the binding result is recorded as “no binding”.

B3: trpe protein: bacterial trpE protein alone, used as control for the fusion protein (protein)
chain: B2 chain
B3: in the assay with EGFR-C, the “binding to EGFR-C” value was “did not bind”.

The record behind these values is patent publication US6391584B1, “Expression-cloning method for identifying target proteins for eukaryotic tyrosine kinases and novel target proteins” (New York University Medical Center, priority 1991, dated 2002).
